The source of these data is patent US20200308309A1 (Novartis, published 2020).

The target in assay [1] is T1, Recombinant marmoset IL-1β (marmoset, UniProt U3E018 117-268). Put plainly: cell-based or functional assay.
Assay [2] has as its target T2, Recombinant human IL-18 (human, UniProt Q14116 37-193).
T2 construct: A biotinylated form (BTP25828) was coated on the read-out plate in the SET assay; The titrated antigen in solution is huIL-18; also called huIL-18
The experiment in a line: SET simultaneous target binding, Assay B (both targets in serial dilutions in one mix), ECL read-out.

Assay [3] deals with T3, Recombinant marmoset IL-18 (marmoset, UniProt U3CWC9 37-190).
T3 construct: also called marIL-18
T3 sequence: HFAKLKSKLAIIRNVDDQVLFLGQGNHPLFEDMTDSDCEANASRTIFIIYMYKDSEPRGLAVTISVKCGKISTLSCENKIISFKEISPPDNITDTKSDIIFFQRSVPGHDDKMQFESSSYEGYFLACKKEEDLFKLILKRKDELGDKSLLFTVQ
The assay is described as above.

Assay [4] has as its target T4, Recombinant human IL-1β (human, UniProt P01584 117-269).
T4 construct: also called huIL-1β
The description is as above.

In assay [5] the target is T1, Recombinant marmoset IL-1β. Described as above.

B1: mAb2 (antibody, human IgG1, kappa, V domains shown)
VH: QVQLVESGGGVVQPGRSLRLSCAASGFTFSVYGMNWVRQAPGKGLEWVAIIWYDGDNQYYADSVKGRFTISRDNSKNTLYLQMNGLRAEDTAVYYCARDLRTGPFDYWGQGTLVTVSS
VL: EIVLTQSPDFQSVTPKEKVTITCRASQSIGSSLHWYQQKPDQSPKLLIKYASQSFSGVPSRFSGSGSGTDFTLTINSLEAEDAAAYYCHQSSSLPFTFGPGTKVDIKR
notes: Human monospecific bivalent IgG1 with kappa light chain (Vkappa6); also called IL-1β antibody; anti IL-1β IgG1
For B1, in assay [1], the “IL-6 prod. in dermal fibroblasts stimulated with recombinant marmoset IL-1β (18 pM), IC50, Exp. A (marmoset dermal fibroblasts by the column head)” value turned out to be 95 pM; the “IL-6 prod. in dermal fibroblasts stimulated with recombinant marmoset IL-1β (18 pM), IC50, Exp. B (marmoset or human fibroblasts: column heads unclear)” value came out at 0.138 nM; the “IL-6 prod. in dermal fibroblasts stimulated with recombinant marmoset IL-1β (18 pM), IC50, Exp. C (marmoset or human fibroblasts: column heads unclear)” value was 0.114 nM. The binding result in assay [2] was “no binding”. In addition, the binding result in assay [3] was “no binding”.

B2: mAb1 (antibody, human IgG1, lambda, L234A L235A, V domains shown)
VH: EVQLVQSGAEVKKPGSSVKVSCKASGGTFKSYAISWVRQAPGQGLEWMGNIIPMTGQTYYAQKFQGRVTITADESTSTAYMELSSLRSEDTAVYYCARAAYHPLVFDNWGQGTLVTVSS
VL: DIVLTQPPSVSGAPGQRVTISCSGSSSNIGNHYVNWYQQLPGTAPKLLIYRNNHRPSGVPDRFSGSKSGTSASLAITGLQSEDEADYYCQSWDYSGFSTVFGGGTKLTVLG
notes: Human monospecific bivalent IgG1 with lambda light chain (Vlambda1); also called IL-18 antibody; anti-IL18 IgG1
B2: the binding result in assay [4] and in assay [5] was “no binding” each time.
